In patent publication US20240209083A1:

How the values were obtained:
[1] = target: human TIM3 (isoform 1), membrane bound (human) (UniProt Q8TDQ0); assay: flow cytometry, lung cancer TILs, CD4+ cells (upper panel), isotype staining
[2] = target: human TIM3 (isoform 1), membrane bound (human) (UniProt Q8TDQ0); assay: flow cytometry, lung cancer TILs, CD8+ cells (lower panel), isotype staining
[3] = target: mouse TIM3 (mouse) (UniProt Q8VIM0); assay: binding to activated mouse T cells (method not given)
Sequence of mouse TIM3 (mouse) (Q8VIM0 20-281): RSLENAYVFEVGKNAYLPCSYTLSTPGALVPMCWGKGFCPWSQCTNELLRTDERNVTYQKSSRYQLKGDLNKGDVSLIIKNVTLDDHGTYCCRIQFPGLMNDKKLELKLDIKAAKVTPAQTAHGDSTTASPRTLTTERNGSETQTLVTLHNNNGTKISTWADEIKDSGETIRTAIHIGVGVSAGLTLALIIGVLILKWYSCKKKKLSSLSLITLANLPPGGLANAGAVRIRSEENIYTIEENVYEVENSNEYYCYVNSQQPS

Row | Substance | % of cells in the quadrant PE isotype positive, APC isotype negative [1] [%] | % of cells in the quadrant PE isotype positive, APC isotype negative [2] [%] | EC50 [3] [nM] | fold weaker EC50 than TIM3.18 binding to human TIM-3 [3] [fold]
1 | Isotype (Comp-PE-A :: Isotype) (antibody) | 2.94 | 3.09 | – | –
2 | rat anti-mouse TIM-3 antibody RMT3-23 | – | – | 1.7 | 17
